According to PMC5766158 (Nucleic Acids Research, 2017):
Positions count from the first letter of the chain named. Names and notes keep the numbering of the source.

T1: POLA2(1-414)-FG3 (human, UniProt Q14181 1-414)
T1 sequence: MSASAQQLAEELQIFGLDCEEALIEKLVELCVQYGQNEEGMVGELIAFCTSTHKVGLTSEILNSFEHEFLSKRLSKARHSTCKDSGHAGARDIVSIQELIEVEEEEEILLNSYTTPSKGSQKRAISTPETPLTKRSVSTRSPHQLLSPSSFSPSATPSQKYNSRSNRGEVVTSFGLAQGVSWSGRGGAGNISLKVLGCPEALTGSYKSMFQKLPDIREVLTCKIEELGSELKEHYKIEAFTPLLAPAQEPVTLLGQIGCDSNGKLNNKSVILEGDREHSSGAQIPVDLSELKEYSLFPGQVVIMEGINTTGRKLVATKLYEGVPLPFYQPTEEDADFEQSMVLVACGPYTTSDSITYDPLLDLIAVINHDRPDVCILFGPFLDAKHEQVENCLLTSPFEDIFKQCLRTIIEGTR

T2: POLA2-FLAG (human, UniProt Q14181 1-598)
T2 sequence: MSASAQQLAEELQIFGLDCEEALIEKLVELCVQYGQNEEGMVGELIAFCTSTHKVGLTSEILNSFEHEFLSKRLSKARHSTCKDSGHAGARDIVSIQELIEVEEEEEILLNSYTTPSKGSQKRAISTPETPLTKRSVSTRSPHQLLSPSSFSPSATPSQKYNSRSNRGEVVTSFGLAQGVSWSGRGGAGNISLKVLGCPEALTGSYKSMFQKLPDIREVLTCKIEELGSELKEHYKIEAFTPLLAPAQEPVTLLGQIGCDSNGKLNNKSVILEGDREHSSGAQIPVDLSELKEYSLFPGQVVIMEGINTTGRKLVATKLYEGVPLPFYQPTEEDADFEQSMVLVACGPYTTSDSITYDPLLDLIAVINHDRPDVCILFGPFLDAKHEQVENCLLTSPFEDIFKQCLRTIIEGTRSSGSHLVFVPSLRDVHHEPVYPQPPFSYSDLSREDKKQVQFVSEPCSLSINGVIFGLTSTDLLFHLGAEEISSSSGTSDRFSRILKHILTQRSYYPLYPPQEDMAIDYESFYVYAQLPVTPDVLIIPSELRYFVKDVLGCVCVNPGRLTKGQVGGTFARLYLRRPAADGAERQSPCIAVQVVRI

B1: full length STN1-Strep (STN1F-Strep) (natural protein)
chain: MQPGSSRCEEETPSLLWGLDPVFLAFAKLYIRDILDMKESRQVPGVFLYNGHPIKQVDVLGTVIGVRERDAFYSYGVDDSTGVINCICWKKLNTESVSAAPSAARELSLTSQLKKLQETIEQKTKIEIGDTIRVRGSIRTYREEREIHATTYYKVDDPVWNIQIARMLELPTIYRKVYDQPFHSSALEKEEALSNPGALDLPSLTSLLSEKAKEFLMENRVQSFYQQELEMVESLLSLANQPVIHSASSDQVNFKKDTTSKAIHSIFKNAIQLLQEKGLVFQKDDGFDNLYYVTREDKDLHRKIHRIIQQDCQKPNHMEKGCHFLHILACARLSIRPGLSEAVLQQVLELLEDQSDIVSTMEHYYTAF
B2: POLA2(1-334)-FG3 (domain or fragment)
chain: MSASAQQLAEELQIFGLDCEEALIEKLVELCVQYGQNEEGMVGELIAFCTSTHKVGLTSEILNSFEHEFLSKRLSKARHSTCKDSGHAGARDIVSIQELIEVEEEEEILLNSYTTPSKGSQKRAISTPETPLTKRSVSTRSPHQLLSPSSFSPSATPSQKYNSRSNRGEVVTSFGLAQGVSWSGRGGAGNISLKVLGCPEALTGSYKSMFQKLPDIREVLTCKIEELGSELKEHYKIEAFTPLLAPAQEPVTLLGQIGCDSNGKLNNKSVILEGDREHSSGAQIPVDLSELKEYSLFPGQVVIMEGINTTGRKLVATKLYEGVPLPFYQPTEED
B3: POLA2OB-FG3 (domain or fragment)
chain: GSYKSMFQKLPDIREVLTCKIEELGSELKEHYKIEAFTPLLAPAQEPVTLLGQIGCDSNGKLNNKSVILEGDREHSSGAQIPVDLSELKEYSLFPGQVVIMEGINTTGRKLVATKLYEGVPLPFYQPTEED
B4: STN1N-Strep R135T (domain or fragment)
chain: MQPGSSRCEEETPSLLWGLDPVFLAFAKLYIRDILDMKESRQVPGVFLYNGHPIKQVDVLGTVIGVRERDAFYSYGVDDSTGVINCICWKKLNTESVSAAPSAARELSLTSQLKKLQETIEQKTKIEIGDTIRVTGSIRTYREEREIHATTYYKVDDPVWNIQIARMLELPTIYRKVYDQPFHSSALEKE
B5: STN1N-Strep OBM-2 (W89A/R139A/Y141A) (domain or fragment)
chain: B4 chain with W89A, T135R, R139A, Y141A
B6: STN1N-Strep D157Y (domain or fragment)
chain: B4 chain with T135R, D157Y
B7: STN1N-Strep (domain or fragment)
chain: B4 chain with T135R
B8: STN1N-Strep R135W (domain or fragment)
chain: B4 chain with T135W

What was measured:
POLA2(1-414)-FG3 = biological target: T1, POLA2(1-414)-FG3; test: pull-down
[1] = biological target: B1; test: pull-down
STN1N-Strep = biological target: B7; test: pull-down
POLA2-FLAG = biological target: T2, POLA2-FLAG; test: cell-based or functional assay
POLA2(1-334)-FG3 = biological target: B2; test: pull-down

Row | Binder | binding result (POLA2(1-414)-FG3) | also measured
1 | B1 | binds | 
2 | B2 |  | binding result [1]: binds
3 | B3 |  | binding result (STN1N-Strep): binds
4 | B4 |  | PP stimulatory activity against wild-type STN1N (1.5 uM, poly-dT template) (POLA2-FLAG): 2 fold
5 | B5 | binds | 
6 | B6 | binds | 
7 | B7 | binds | binding result (POLA2(1-334)-FG3): binds
8 | B8 | binds | 
